Source: patent US20190367589A1

Assays:
[1] = molecular target: rat Jagged 2 (rJAG2) (rat) (UniProt P97607); assay: drawn table 'Kd (nM)' of Fab; method not stated; the legend names the matured antibody as 4D11
mouse Jagged 1 (mouse) [2] = assay: ELISA, ligand-Fc coated (method lists rat Jagged 1-Fc), anti-human IgG Fab-specific HRP
mouse Jagged 1 (mouse) [3] = assay: ELISA as for the other curves; sheet and legend say mouse Jagged 1, the method lists rat Jagged 1-Fc as the coated protein

| Kd [1] | affinity (ELISA) (mouse Jagged 1 (mouse) [2]) | EC50 (read off the curve) (mouse Jagged 1 (mouse) [3]) | Binder |
| --- | --- | --- | --- |
| < 1 nM | – | – | 4D11 Fab (Fab, V domains shown) VH: EVQLLESGGGLVQPGGSLRLSCAASGFTFSSYAMSWVRQAPGKGLEWVSSIDPEGRQTYYADSVKGRFTISRDNSKNTLYLQMNSLRAEDTAVYYCAKDIGGRSAFDYWGQGTLVTVSS VL: DIQMTQSPSSLSASVGDRVTITCRASQSISSYLNWYQQKPGKAPKLLIYAASSLQSGVPSRFSGSGSGTDFTLTISSLQPEDFATYYCQQTVVAPPLFGQGTKVEIKR |
| – | > 30 nM | 50 nM | anti-Jagged 32 IgG (antibody, V domains shown) VH: EVQLLESGGGLVQPGGSLRLSCAASGFTFSSYAMSWVRQAPGKGLEWVSSIEQMGWQTYYADSVKGRFTISRDNSKNTLYLQMNSLRAEDTAVYYCAKSAAAFDYWGQGTLVTVSS VL: DIQMTQSPSSLSASVGDRVTITCRASQSISSYLNWYQQKPGKAPKLLIYAASLQSGVPSRFSGSGSGTDFTLTISSLQPEDFATYYCQQTVVAPLTFGQGTKVEIKR |
| – | > 30 nM | – | anti-Jagged 13 IgG (antibody, V domains shown) VH: EVQLLESGGGLVQPGGSLRLSCAASGFTFSSYAMSWVRQAPGKGLEWVSSIETQGPTTLYADSVKGRFTISRDNSKNTLYLQMNSLRAEDTAVYYCAKTSSAFDYWGQGTLVTVSS VL: DIQMTQSPSSLSASVGDRVTITCRASQSISSYLNWYQQKPGKAPKLLIYASSLQSGVPSRFSGSGSGTDFTLTIGSLQPEDFATYYCQQNVATPLTFGQGTKVEIKR |
